Among the data in article PMC11813165 are stoichiometry N values, retold here.

Like-named read-outs stand apart in the source and are kept apart here.

The target of assay [1] is NiV (Bangladesh strain) L (full-length, with C-terminal triple strep tag) (Nipah virus (Bangladesh strain)) (UniProt Q997F0). Nature of the assay: mass photometry.
The target is the same in assay [2]. In words: mass photometry. This is another data set of the same source.

Regarding “NiV (Bangladesh strain) P (full-length, with N-terminal polyhistidine tag) (from UniProt Q4VCQ1 1-709) (natural protein)”, the stoichiometry N in assay [1] was 3; in assay [2], 4.

By stoichiometry N is commonly meant a count of units in the complex or per binding partner.
